In PMC10328973 (Nature Communications, 2023):
Positions count from the first letter of the chain named.

Tests used:
[1] = biological target: T1, AMS3a E2E1-I53-50A trimer (Hepatitis C virus genotype 3a, strain …, stabilised); assay: ELISA; details: both partners purified
T1 construct: also called AMS3a E2E1 trimer; source: HEK293F, co-transfected with furin, purified (Strep-TactinXT, SEC); copies: 3 + 3

H77 E2E1-I53-50A trimer = biological target: T2, H77 E2E1-I53-50A trimer (Hepatitis C virus genotype 1a, strain …, UniProt P27958, stabilised); assay: ELISA; details: both partners purified
T2 construct: source: HEK293F, co-transfected with furin, purified (Strep-TactinXT, SEC); copies: 3 + 3

[2] = biological target: T3, AMS2b E2E1-I53-50A trimer (Hepatitis C virus genotype 2b, strain …, stabilised); assay: ELISA; details: both partners purified
T3 construct: also called AMS2b E2E1 trimer; source: HEK293F, co-transfected with furin, purified (Strep-TactinXT, SEC); copies: 3 + 3

[3] = biological target: T4, UKNP5.2.1 E2E1-I53-50A trimer (Hepatitis C virus genotype 5, strain …, UniProt A0A0U3TV66, stabilised); assay: cell-based or functional assay
[4] = biological target: T5, UKNP6.1.2 E2E1-I53-50A trimer (Hepatitis C virus genotype 6, strain …, UniProt A0A0U3SJ35, stabilised); assay: ELISA; details: both partners purified
T5 construct: also called UKNP6.1.2 E2E1 trimer; source: HEK293F, co-transfected with furin, purified (Strep-TactinXT, SEC); copies: 3 + 3

[5] = biological target: T4, UKNP5.2.1 E2E1-I53-50A trimer; assay: ELISA; details: both partners purified
[6] = biological target: T6, UKNP4.1.1 E2E1-I53-50A trimer (Hepatitis C virus genotype 4a, strain …, UniProt A0A0U3JDN1, stabilised); assay: ELISA; details: both partners purified
T6 construct: also called UKNP4.1.1 E2E1 trimer; source: HEK293F, co-transfected with furin, purified (Strep-TactinXT, SEC); copies: 3 + 3

[7] = biological target: T7, UKNP5.2.1 E2E1-I53-50A trimer (Hepatitis C virus genotype 5, strain …, UniProt A0A0U3TV66, stabilised); assay: ELISA; details: both partners purified; remark: listed apart in the source
T7 construct: also called UKNP5.2.1 E2E1 trimer; source: HEK293F, co-transfected with furin, purified (Strep-TactinXT, SEC); copies: 3 + 3

[8] = biological target: T8, AMS3a E2E1-I53-50A trimer (Hepatitis C virus genotype 3a, strain …, stabilised); assay: ELISA; details: both partners purified
T8 construct: also called AMS3a E2E1 trimer; source: HEK293F, co-transfected with furin, purified (Strep-TactinXT, SEC); copies: 3 + 3
T8 chain 1: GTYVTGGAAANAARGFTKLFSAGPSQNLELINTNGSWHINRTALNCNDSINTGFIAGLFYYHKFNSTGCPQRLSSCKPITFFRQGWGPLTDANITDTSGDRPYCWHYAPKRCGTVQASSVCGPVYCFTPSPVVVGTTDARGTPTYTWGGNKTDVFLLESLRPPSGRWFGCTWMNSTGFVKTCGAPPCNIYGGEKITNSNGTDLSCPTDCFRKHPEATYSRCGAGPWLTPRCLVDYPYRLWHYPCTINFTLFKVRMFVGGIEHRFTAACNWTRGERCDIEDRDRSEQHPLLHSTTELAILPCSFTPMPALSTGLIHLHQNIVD
T8 chain 2: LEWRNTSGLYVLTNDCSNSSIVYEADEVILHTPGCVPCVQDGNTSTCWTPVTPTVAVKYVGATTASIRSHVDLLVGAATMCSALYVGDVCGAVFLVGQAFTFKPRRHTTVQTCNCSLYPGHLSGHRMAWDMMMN

[9] = biological target: T9, UKNP4.1.1 E2E1-I53-50A trimer (Hepatitis C virus genotype 4a, strain …, UniProt A0A0U3JDN1, stabilised); assay: ELISA; details: both partners purified; remark: listed apart in the source
T9 construct: also called UKNP4.1.1 E2E1 trimer; source: HEK293F, co-transfected with furin, purified (Strep-TactinXT, SEC); copies: 3 + 3

[10] = biological target: T10, UKNP6.1.2 E2E1-I53-50A trimer (Hepatitis C virus genotype 6, strain …, UniProt A0A0U3SJ35, stabilised); assay: ELISA; details: both partners purified; remark: listed apart in the source
T10 construct: also called UKNP6.1.2 E2E1 trimer; source: HEK293F, co-transfected with furin, purified (Strep-TactinXT, SEC); copies: 3 + 3

[11] = biological target: T11, AMS2b E2E1-I53-50A trimer (Hepatitis C virus genotype 2b, strain …, stabilised); assay: ELISA; details: both partners purified
T11 construct: also called AMS2b E2E1 trimer; source: HEK293F, co-transfected with furin, purified (Strep-TactinXT, SEC); copies: 3 + 3
T11 chain 1: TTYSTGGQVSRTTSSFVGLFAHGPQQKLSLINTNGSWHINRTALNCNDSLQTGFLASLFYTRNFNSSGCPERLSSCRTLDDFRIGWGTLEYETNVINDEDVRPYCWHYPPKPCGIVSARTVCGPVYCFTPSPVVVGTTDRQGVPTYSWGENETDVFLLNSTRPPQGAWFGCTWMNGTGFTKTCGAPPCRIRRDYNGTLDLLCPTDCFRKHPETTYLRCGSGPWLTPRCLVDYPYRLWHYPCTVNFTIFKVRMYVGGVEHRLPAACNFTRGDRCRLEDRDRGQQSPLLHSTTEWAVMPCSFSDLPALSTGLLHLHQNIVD
T11 chain 2: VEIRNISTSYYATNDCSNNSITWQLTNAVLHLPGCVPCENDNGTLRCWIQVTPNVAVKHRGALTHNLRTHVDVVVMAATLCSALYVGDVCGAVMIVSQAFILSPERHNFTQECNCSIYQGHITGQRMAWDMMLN

B1: HEPC74 (antibody, V domains shown)
VH: QVQLVQSGAEVKKPGSSVKVSCTTSGGTYINYAISWVRQAPGQGLEWVGGMSPISNTPKYAQKFQGRVTITADESTSTTYMELSSLRPEDTAVYYCARDLLKYCGGGNCHSLLVDPWGQGTLVTVSS
VL: DIVMTQSPSTLSASVGDRVTISCRASQSISSWLAWYQQKPGRAPKLLIYKASSLETGVPSRFSGSGSGTEFTLTISSLQPDDFATYYCQHYNTYLFTFGPGTKVDLK
notes: also called mature HEPC74; conventional HEPC74; source: HEK293F, transfected, purified (protein A/G)
- binding result [1]: binds
- binding result (H77 E2E1-I53-50A trimer): binds
- binding result [2]: binds
- neutralisation of UKNP5.2.1 HCVpp, IC50 [3]: 0.03 µg/mL

B2: HEPC74 S54L (antibody, V domains shown)
VH: B1 VH with S55L
VL: B1 VL
notes: human IgG1; source: HEK293F, transfected, purified (protein A/G)
- binding result [1]: binds
- binding result (H77 E2E1-I53-50A trimer): binds
- binding result [4]: binds
- binding result [5]: binds
- binding result [2]: binds
- binding result [6]: binds

B3: AR3C (antibody, V domains shown)
VH: VQLLEQSGAEVKKPGSSVKVSCETSGGTFDNYALNWVRQAPGQGLEWIGGVVPLFGTTRNAQKFQGRVTISDDKSTGTGHMELRSLRSEDTAVYYCVRSVTPRYCGGGFCYGEFDYWGQGTLVTVSS
VL: EIELTQSPATLSVSPGERATLSCRASQSVSSNLAWYQQKPGQAPRLLIYGASTRATGIPARFSGSGSGTEFTLTVSRLEPEDSAVYFCQQYYRSPLTFGGGTKVEIK
notes: also called mature AR3C; conventional AR3C; source: HEK293F, transfected, purified (protein A/G)
- binding result [1]: binds
- binding result (H77 E2E1-I53-50A trimer): binds
- binding result [4]: binds
- binding result [5]: binds
- binding result [2]: binds
- binding result [6]: binds

B4: AR3D (antibody, V domains shown)
VH: LLEQSGAEVKKPGSSVKVSCKASGDTFRSYVITWARQAPGQGLEWMGAIIPFFGTTNLAQKFQGRVTITADESTKTVYMDLSSLRSDDTAVYYCAKAGDLSVGGVLAGGVPHLRHFDPWGQGTLVTVSS
VL: ELTQSPGTLSLSPGERATLSCRAGQTVASNSLAWYQHKPGQAPRLLIYGASIRASGIPDRFSGSGSGTDFTLTISRLEPEDFAVYYCQQYGLSSTFGQGTRLEIK
notes: also called mature AR3D; source: HEK293F, transfected, purified (protein A/G)
- binding result [7]: binds
- binding result (H77 E2E1-I53-50A trimer): binds
- binding result [8]: binds
- binding result [9]: binds
- binding result [10]: binds
- binding result [11]: binds

B5: HEPC3 (antibody, V domains shown)
VH: QVQLVQSGAEVKKPGSSVKVSCKASGGTLNSYEITWVRQAPGQGLEWMGGITPIFETTYAQKFQGRVTITADESTSTTYMELSSLRPEDTAVYYCARDGVRYCGGGRCYNWFDPWGQGTLVTVSS
VL: DIQMTQSPSSLSASVGDRVTITCRAGQNINNYLNWYQQKPGKAPKVLIYAASNLQSGVPSRFSGSGSGTDFTLTISSLQPEDFATYYCQQSHSTVRTFGQGTKVEIK
notes: also called mature HEPC3; source: HEK293F, transfected, purified (protein A/G)
- binding result [1]: binds
- binding result (H77 E2E1-I53-50A trimer): binds
- binding result [4]: binds
- binding result [5]: binds
- binding result [2]: binds
- binding result [6]: binds

B6: AT1209 (antibody, V domains shown)
VH: QVLVQSGAEVKKPGSSVRVSCKASGDTFKTHAISWVRQAPGQGLEWVGGTVRQAPGDGLELLGGFVPILAPANDAQKFQGRVTITADGSTGPVYMDLSTLTSEDTAMYYCVTSLSEPIPRSCRGGRCYSGPFDAFGVWGQ
VL: EIMLTQSPVTLSVSPGERATLSCRASQSIGTNLAWYQKPGQAPRLLIHGASTRATGVPVSFSGSGSGTEFTLTISSLQSEDFAVYYCQQYNNWPLTFGGGTKVEIK
notes: also called mature AT1209; source: HEK293F, transfected, purified (protein A/G)
- binding result [1]: binds
- binding result (H77 E2E1-I53-50A trimer): binds
- binding result [4]: binds
- binding result [5]: binds
- binding result [2]: binds
- binding result [6]: binds
